Experimental data published in patent publication US20250134683A1, “MICRO-NANO MEDICAL STENT FOR DIRECTIONAL, QUANTITATIVE AND TIMED RELEASE OF DRUG AND PREPARATION METHOD THEREOF” (GUANGDONG UNIVERSITY OF TECHNOLOGY, priority 2023, published 2025).

Test: sequential release of drugs from core-shell nano-disordered electrospun fiber structure
Format: physicochemical
Settings: composite electrospun layer of Example 1; roxithromycin in shell layer fiber, human epidermal growth factor in core layer fiber
From the text: Moreover, the transmission electron microscopic image of the core-shell nano-disordered electrospun fiber structure in the composite electrospun layer prepared in Example 1 is shown in FIG. 3. […] The coaxial electrospinning realizes the sequential and timed release of the two drugs in the same electrospun layer. Further, the electrospun layer can be prepared by triaxial electrospinning or multiaxial electrospinning process, which has a core-shell structure of three core layers or multi-core layers, thereby achieving the sequential and timed release of three or more drugs in the same electrospun layer.

B1: human epidermal growth factor: growth factor gel loaded in PVA core layer fiber (protein, UniProt P01133 23-1207, looked up)
Pro-epidermal growth factor: PQHWSCPEGTLAGNGNSTCVGPAPFLIFSHGNSIFRIDTEGTNYEQLVVDAGVSVIMDFHYNEKRIYWVDLERQLLQRVFLNGSRQERVCNIEKNVSGMAINWINEEVIWSNQQEGIITVTDMKGNNSHILLSALKYPANVAVDPVERFIFWSSEVAGSLYRADLDGVGVKALLETSEKITAVSLDVLDKRLFWIQYNREGSNSLICSCDYDGGSVHISKHPTQHNLFAMSLFGDRIFYSTWKMKTIWIANKHTGKDMVRINLHSSFVPLGELKVVHPLAQPKAEDDTWEPEQKLCKLRKGNCSSTVCGQDLQSHLCMCAEGYALSRDRKYCEDVNECAFWNHGCTLGCKNTPGSYYCTCPVGFVLLPDGKRCHQLVSCPRNVSECSHDCVLTSEGPLCFCPEGSVLERDGKTCSGCSSPDNGGCSQLCVPLSPVSWECDCFPGYDLQLDEKSCAASGPQPFLLFANSQDIRHMHFDGTDYGTLLSQQMGMVYALDHDPVENKIYFAHTALKWIERANMDGSQRERLIEEGVDVPEGLAVDWIGRRFYWTDRGKSLIGRSDLNGKRSKIITKENISQPRGIAVHPMAKRLFWTDTGINPRIESSSLQGLGRLVIASSDLIWPSGITIDFLTDKLYWCDAKQSVIEMANLDGSKRRRLTQNDVGHPFAVAVFEDYVWFSDWAMPSVMRVNKRTGKDRVRLQGSMLKPSSLVVVHPLAKPGADPCLYQNGGCEHICKKRLGTAWCSCREGFMKASDGKTCLALDGHQLLAGGEVDLKNQVTPLDILSKTRVSEDNITESQHMLVAEIMVSDQDDCAPVGCSMYARCISEGEDATCQCLKGFAGDGKLCSDIDECEMGVPVCPPASSKCINTEGGYVCRCSEGYQGDGIHCLDIDECQLGEHSCGENASCTNTEGGYTCMCAGRLSEPGLICPDSTPPPHLREDDHHYSVRNSDSECPLSHDGYCLHDGVCMYIEALDKYACNCVVGYIGERCQYRDLKWWELRHAGHGQQQKVIVVAVCVVVLVMLLLLSLWGAHYYRTQKLLSKNPKNPYEESSRDVRSRRPADTEDGMSSCPQPWFVVIKEHQDLKNGGQPVAGEDGQAADGSMQPTSWRQEPQLCGMGTEQGCWIPVSSDKGSCPQVMERSFHMPSYGTQTLEGGVEKPHSLLSANPLWQQRALDPPHQMELTQ
modifications: Pro-epidermal growth factor
notes: growth factor gel loaded in PVA core layer fiber
order of drug release from core-shell fiber: subsequently released
